# Laboratory results reported in the DeepSol protein solubility set.
# Test: soluble on expression in E. coli; label from the status in PepcDB or PDB records
row,Sequence,soluble on expression in E. coli
1,MKLSQLGFFCAVVERGTIAAAAEQLHCVPSNITTRLRELEGQLGVALFNRERNRLLVTPEGRLLYRHATRLLALADETAALFAGDQAHGALRVGALDVALANHLPQRLARYRRESPGVELHIRPEHSLLLERLLMEGELDLIVTDGPIEHPLLASRLAFRERLLRVTPADLPAPTPEDLAGLELYVFGHTCHYRRQVDRWLAESAIQPRATLEIESYPSLFACIEAGLGFACVPESFVARRPSTRRGFHAEPVAGLDSSDIHFVWRKQQASPLIQGFIDSIGAD,not soluble
2,NLAHDTVFEVRNVTSRDRKKVRDISFSVCRGEILGFAGLVGSGRTELMNCLFGVDKRAGGEIRLNGKDISPRSPLDAVKKGMAYITESRRDNGFFPNFSIAQNIAISRSLKDGGYKGAMGLFHEVDEQRTAEAQRELLALKCHSVNQNITELSGGNQQKVLISKWLCCHPEVIIFDEPTRGIDVGAKAEIYKVMRQLADDGKVILMVSSELPEIITVCDRIAVFCEGRLTQILTNRDDMSEEEIMAWALPHE,not soluble
3,DVSQKIKDIDDQIQQLLLKQRHLLSKMASSMKSLKNCQKELISTQILQFEAQNMDVSMNDVIGFFNEREADLK,soluble
4,MAAWKSWTALRLCATVVVLDMVVCKGFVEDLDESFKENRNDDIWLVDFYAPWCGHCKKLESIWNEVGLEMKSIGSPVKVGKMDATSYSSIASEFGVRGYPTIKLLKGDLAYNYRGPRTKDDIIEFAHRVSGALIRPLPSQQMFEHMQKRHRVFFVYVGGESPLKEKYIDAASELIVYTYFFSASEEVVPEVIFKI,soluble
5,MEFMRVLLIAGGVSPEHEVSLLSAEGVLRHIPFPTDLAVIAQDGRWLLGEKALTALEAKAAPEGEHPFPPPLSWERYDVVFPLLHGRFGEDGTVQGFLELLGKPYVGAGVAASALCMDKDLSKRVLAQAGVPVVPWVAVRKGEPPVVPFDPPFFVKPANTGSSVGISRVERFQDLEAALALAFRYDEKAVVEKALSPVRELEVGVLGNVFGEASPVGEVRYEAPFYDYETKYTPGRAELLIPAPLDPGTQETVQELALKAYKVLGVRGMARVDFFLAEGELYLNELNTIPGFTPTSMYPRLFEAGGVAYPELLRRLVELALT,soluble
6,MGSDKIHHHHHHACRQVATESRVQPASFEVGSSMIADTFFLDSLSLFMPETNEEALINNIDRVYESNGRYFILDKRMKQVLCYTLSGKHLFTIHAVGNGKGEYVDLFDIAIDEAENKLLLLTYPSQILYYDLEGTYLSSYPLDDTYQSFAVDKGFIYLRNDTYANGVVSDYSLIVINKETGKQTSLLEPLYETAPFCSSGNYQITNTASVLFTRKFDNHIYRITGESIEPLYMVDWKDKAFPESDKQRQFQCNDLNQLCYQGKYVYTMTDLCDTPSYLLFRTNQPGMCLLSKATSTVNNYQVIINTDYQLPLPNYMSVEGKQSRIFFIYSSEVLCEQKKLSAEEDINEKMSSLLGQIKEGDNPVIFTYHVK,not soluble
7,MGSDKIHHHHHHMSSIYSAPILVFDVNETLLDIDTLTPLFTRLFGDENRLREWFAQLVLYSQTMTLSGLYTPFGELGVGALQMTADIHAVTLTEEDIQEFKQRMSETPAHPDVIPALTKLRDAGFRLVTLTNSAPSTSPTRLEKAGLSEFFEQNFSVDSVRQFKPAPAIYQMVASELSVETSELCLVACHIWDTIGAQAAGCQGAFVTRPYNALLSAPNVPKPDFIASDLITLAEHIINHQSS,not soluble
8,MGSDKIHHHHHHLIKSIFNKLFNLRENNPIERPKSFSATDLGKPLAISPKNITQQESISANVVYVDLSALFYSLLFPARVNDAGGIANNLERRVMAEIEHALASPQVIAEKVLKLPSKVLELDRKLADPQFDIKALLALIERDPLLSVEVLKLCNSPAFKRSDRDITNLQQALVQLGREQLRKFVTTCLVREMLDIKPIYFRRFGAEIWRHSMQVAFLASELSDEDQDTAFLLGLLHDVGKLAIFKMLLDAFVQAEPGEQPNSGLFRQVMTTKSLTLSSLLAKHWQLPNTFETELDRLASVNSRPQAGLAAVVWRANVISEISMLHQAGQLSPEILANLLQQVNLEQTQFDGLHQKLLQF,not soluble
9,MAHHHHHHMTRKVAGDMWDSRVEASLPALNYLRTAQQLQKKADELSRAQERVHRLQEDNSALLLENELLKRERDALLCKVQFLELNEHGHCTTNDIVGPWGNVRSVPAGGLGSTTGGDLSPVFKDNVNKASETRVNISEQARTHTNSEQQDLHNPKEETILCPLSASSETLINTNRPDANIETFHRSTESHVEYCANGECRSPISMTRTTQTVAYERRVPSVERGTMTTMNIYICSYQSLPSKAGAFFEVPLSNVETAIHHDPESLTSITIPRS,not soluble
10,MQVLHVCSEMFPLLKTGGLADVIGALPAAQIADGVDARVLLPAFPDIRRGVTDAQVVSRRDTFAGHITLLFGHYNGVGIYLIDAPHLYDRPGSPYHDTNLFAYTDNVLRFALLGWVGAEMASGLDPFWRPDVVHAHDWHAGLAPAYLAARGRPAKSVFTVHNLAYQGMFYAHHMNDIQLPWSFFNIHGLEFNGQISFLKAGLYYADHITAVSPTYAREITEPQFAYGMEGLLQQRHREGRLSGVLNGVDEKIWSPETDLLLASRYTRDTLEDKAENKRQLQIAMGLKVDDKVPLFAVVSRLTSQKGLDLVLEALPGLLEQGGQLALLGAGDPVLQEGFLAAAAEYPGQVGVQIGYHEAFSHRIMGGADVILVPSRFAPCGLTQLYGLKYGTLPLVRRTGGLADTVSDCSLENLADGVASGFVFEDSNAWSLLRAIRRAFVLWSRPSLWRFVQRQAMAMDFSWQVAAKSYRELYYRLKLEHHHHHH,soluble
11,MKVRFLQISDLHFQFQNYDTIVMRDKLLDFIEVLRRESDFDFLLLTGDIAHKGDVYNEDVKEYLNGIIKSMGLSKNNVHLVPGNHDISRDMTRTLLIDSIMKSPNPSEMLDKLDQKATNILVEGQRKFFDFYEDFMGVKYPEEDLHFLYQSEKYNVLSINTCLLSDKKGEEGTLLTAQMKLYKAIRKMNKEKNKGKVLNIAIGHHTLGCIESSERESIKAHFDDYFIDLYLAGHVHDSSFNITANTNENPFLELVSGAIIKDEYATPEFISVDVNLDNGETEVTYYIWNTEYKYWSKNNQGGRRLQEGKLNYKINRLESLIEKEIEDNDDKIDEDEFKSFIIDFHEYRESYKTFTSNFDNQIGLDKKFYDMKSGETFKRKFDSYSEYFGVINHIMDSTSYVSADKKELIAETIVDKYLEFHNQYNNGDEIFVKIVNEIYLECHSVLPYSKALTKKYIKILTCWCIYECEIFNDNKRSVKNDLEHHHHHH,soluble
12,MSLGINRIDHAAVQVGDLGKALAWYEDVLGLTVLSRDDTTVHLACRGEAADITLVKGRQSLENFAFGVDDQEDLDRVESILKQEGVASERLNGDSRPGEGATLKFHLPSGHELRLCTGGAERRAGISDFDARGSHVPCDMDHINLLGAVDPSVMRDFLMMIGFKSSLNISVGGQLAGVWLRGSAYDHDIAYMRAVRPGDRLHHVAFAVEDGNHYFRLSDRLMDTGHRWEFGPGRHNGGLGKSTGFGTNNYAYAFDPFGNRNEFSSGMEQFSDDTPPLDCHIAPEQLTEVMNGWGYEMAETFMTVGSEGHHHHHH,not soluble
13,MVHHSTKLPKNGGSEPKLVGAYLVSGSRSRIVDLINMIRELNAPILVFTRYPTFYQDLGENIKVIWITQASEDGIPPTKLHVIQDYAIKFAKENKYAVVIIDCVEYLLLYNEFASVFKFLASLKDYLIMMNSALVLAVDEKALDEKYYTLLLNEFEPLLEHHHHHH,soluble
14,MGVVRRGSDVTSHVSSVSGKSAPCLQHFSVIRSIGRGAFGKVCIVQERKTKKYFALKYMNKRRCIEKGVAANVIRELTLLSKMSHPFIVNLWYTFQDGDYMYMVSDLLLGGDLRYHLSQQGKFAEDRAKLYLCEICLAVEYLHEMKIVHRDIKPENILLDEQGHAHLTDLNLATQLEDDQLATSYSGTRPYMAPEIYATYLEIEDGYDSRVDWWALGVCFYEMLRGRTPFEFSSRTKPEEAYVAFRESSIPYPAHWPTDLIQFINSMLKFDKEKRLVGLEAIKKHSYTERIDFKSVFEKKPSPVFIPCKEGLNCDPMYELEERILVSTPIHRRRTNHNNSSGRSSSEPQNAALVEVSKAFIDFSRHNVKIEPNGFVKLN,not soluble
15,MSLRIEYNYRYYLTENEYKQYHIQLKGFIKKYVATKLADVGEVIHFAQAQQRQGRYVSLYLSYEAAKYFNHVMCTHSLAKDDIYAVAYSFEKAESINSTYEHQTSYVSKHHFSFVESSEVMMTNIKRVQQAIVEGETYQVNYTARLTDNIYYPISTLYERLTQFSNGNYTALLQTDEIQVASISPELFFQKGQFNNVDNVIISKPMKGTMPRGKTEAEDQQYYKTLQTSSKDRAENVMIVDLLRNDIGRISQSGSIKVYKLFFIEAYKTVFQMTSMVSGTLKTNTDLTQILTSLFPCGSITGAPKLNTMKYIKQFESSPRGIYCGAIGLLLPTEDDKMIFNIPIRTIEYKYGQAIYGVGAGITIDSKPKDEVNEFYAKTKILEMLEGHHHHHH,soluble
16,MITLEQKLEQYKHTYVQLKGELKWKTSDSRTGMMIAAMYAGSDKLFDLGRFLEISSYIKNQVGMFSYLKSYHRFVVAATLDIHFTDYKEAFRKFLDLYEQLVTGGFSRSIFTYLAAAVLLTEENEQHGAHIQRSMQVYKRMKKDHLFLTSTNDYPLAVLLAGQSEHVETLMDRVERLYQKLATAGLRKGNDLQFLSHILSLKKDVREELLVAKCTNIWNLLKQEKVKVKQMHYPAIGLLALLEDGEKEIHSIRAFIEKLQGDKLFRWHTDTNILIAIQLFVSQKGEESKATNTGLQTMIEVLIQAQQAAMMATIAASSAATSSASSSS,not soluble
17,MIEKKKNRSKLKREAILAAAKKAYQDDGVQNTSMDKLASLAQVSKRTVYNHFSSKEALVMELLSDLWQNSMADIDIQFSENVSIQDQLERLLLAELNVIGAQSYLDLAKVAFGHFFYKPDELQLQVEKMAEQETALSRWLQLMMDTKKLTIEDKHKAGVQLHSLLKGSAFWPQLVGMRAVLSSEEKEQLVTETADMFLSRYLKR,not soluble
18,MAHHHHHHMLRDELPPEKGQQSFSLWSRILRSIDGCKLEIVLDDQTEADKIKVVDIYDKVSERFPLYSWKEPVKGRVVVTPTGSSYSHQGVVVELIGVASTFREVESRVVFLRQERQFEPDTLNQSTPFEFTFSAPKEHESYHGIYARVRYFVQATVKQRIKSPSVKEEVWVHRVDTALSESQTDASAHMNYFRETCFGPESIAMNVGVDNVLHIEFRYDKKIFHLAERVLGKVEYKVADMDIAYGEVGLVRKEFLAPGQTDETMESETLQKFEIMDGTPIVEEVVPIRLYLKSVPRLTPSYMDVENLFSVRYFLNLVLVNQEGKRYFKQQEIQLYRRTGQERSATSFNSGLPVTPASGDVDAKGGWSA,not soluble
19,MSLDFAMLPPEVNSTRMYSGPGAGSLWAAAAAWDQVSAELQSAAETYRSVIASLTGWQWLGPSSVRMGAAVTPYVEWLTTTAAQARQTATQITAAATGFEQAFAMTVPPPAIMANRAQVLSLIATNFFGQNTAAIAALETQYAEMWEQDATAMYDYAATSAAARTLTPFTSPQQDTNSAGLPAQSAEVSRATANAGAADGNWLGNLLEEIGILLLPIAPELTPFFLEAGEIVNAIPFPSIVGDEFCLLDGLLAWYATIGSINNINSMGTGIIGAEKNLGILPELGSAAAAAAPPPADIAPAFLAPLTSMAKSLSDGALRGPGEVSAAMRGAGTIGQMSVPPAWKAPAVTTVRAFDATPMTTLPGGDAPAAGVPGLPGMPASGAGRAGVVPRYGVRLTVMTRPLSGEGHHHHHH,soluble
20,AIAIRTKQSEAKSKGDTLRQLELAALMTHCNMLITHQQLALQAAMKLAYATKNYLYALAFAKRLLELAPNEEMERTAKKVMQFCERNPNNQNQLDYDIEQSNFAIDAGRLKPCIQPPTKSCVYCGACYDESWHSMTCVVCQVAQD,soluble
